B1: TPR 5TU (parent)
chain: GGAUCUUCUCGAUCUAACAAAAAAGACAAAUCUGCCACAAAGCUUGAGAGCAUCUUCGGAUGCAGAGGCGGCAGCCUUCGGUGGCGCGAUAGCGCCAACGUUCUCAACUAUGACACGCAAAACGCGUGCUCCGUUGAAUGGAGUUUAUCAUG

Variants at the floor of the assay were thinned out.

In this data set the parent is B1. Put plainly: polymerase ribozyme fitness, log enrichment relative to wild type (log ratio); higher = more active; in vitro selection for triplet polymerase activity. The method in brief: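 The heterodimeric triplet polymerase ribozyme's subunits were each mutagenized into PCR-built libraries and transcribed. Every library was selected once, in triplicate, by annealing with a biotinylated primer, the partner subunit and triplets, incubating frozen at −7 °C, gel-excising extended constructs, capturing on streptavidin beads and running RT-PCR. Input and output libraries were Illumina-sequenced, with genotypes kept only at ≥10 input reads and ≥1 read per output. Fitness, from inverse-variance-weighted replicate averages, is the base-2 logarithm of genotype enrichment over wild-type enrichment.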
Take A52C G83U A106G: the “polymerase ribozyme fitness (log ratio)” value is -2.56.

A24G G86U: the “polymerase ribozyme fitness (log ratio)” value was -3.77.

Consider A24C C72U C85G C131G G133U, for which the “polymerase ribozyme fitness (log ratio)” value is ≤ -4.2.

For the variant A49C A91U C95A A107U, the “polymerase ribozyme fitness (log ratio)” value is ≤ -4.2.

Regarding A60U A91U C96A C103A A115U, the “polymerase ribozyme fitness (log ratio)” value is ≤ -4.2.

Turning to U55G C96A C105U, the “polymerase ribozyme fitness (log ratio)” value is -0.496.

In the case of C93U U104G, the “polymerase ribozyme fitness (log ratio)” value is -1.8.

In the case of A19U G25U C35A G65U A91U A120G G140A A142U, the “polymerase ribozyme fitness (log ratio)” value is -4.19.

On to A17U G58A C76U C87A A120G G133U, for which the “polymerase ribozyme fitness (log ratio)” value is ≤ -4.2.

For the variant G11U U90A A119U G133C, the “polymerase ribozyme fitness (log ratio)” value was ≤ -4.2.

As for A40C A41C G58C A91U G124A C125A, the “polymerase ribozyme fitness (log ratio)” value was ≤ -4.2.

On to A12U A24C C63G C85U C87A G94C A107G G126A A137G G141U, for which the “polymerase ribozyme fitness (log ratio)” value was ≤ -4.2.

G84A C95G G141C: the “polymerase ribozyme fitness (log ratio)” value is -0.311.

Regarding U56A C103A A110G U144G, the “polymerase ribozyme fitness (log ratio)” value is -3.91.

A39U U53A C75G G86U U146G: the “polymerase ribozyme fitness (log ratio)” value is ≤ -4.2.

Turning to A21G U31G C38U A66G C93A G124U U144A, the “polymerase ribozyme fitness (log ratio)” value is ≤ -4.2.

A21U C93G: the “polymerase ribozyme fitness (log ratio)” value was -2.5.

As for C99U A147G, the “polymerase ribozyme fitness (log ratio)” value is -2.

Consider C38A A89C C93G C95G C108U U135C, for which the “polymerase ribozyme fitness (log ratio)” value is ≤ -4.2.

U45G A52G U82C U101G C131U: the “polymerase ribozyme fitness (log ratio)” value is -3.32.

For G50C A52C G58C, the “polymerase ribozyme fitness (log ratio)” value was ≤ -4.2.

For U55G G143A, the “polymerase ribozyme fitness (log ratio)” value was -0.655.

In the case of C35U G92A C96A, the “polymerase ribozyme fitness (log ratio)” value is ≤ -4.2.

With A23C A30C G50A A66G C96A A98U G128C, the “polymerase ribozyme fitness (log ratio)” value is ≤ -4.2.

For G25U U55A C72G C93G G140A, the “polymerase ribozyme fitness (log ratio)” value was ≤ -4.2.

As to U53A G58A G71A G126A U135G, the “polymerase ribozyme fitness (log ratio)” value was ≤ -4.2.

As for C10U C14G A28U G58C U61C G70C C76G C96U A138G G140U C149G, the “polymerase ribozyme fitness (log ratio)” value is ≤ -4.2.

Take A22C C69A G80C C85U A89U A142G: the “polymerase ribozyme fitness (log ratio)” value is ≤ -4.2.

C27A G58U C95U C96A G124U: the “polymerase ribozyme fitness (log ratio)” value is -4.08.

Turning to A21G C99U, the “polymerase ribozyme fitness (log ratio)” value worked out at 0.465.

In the case of C5A A24G A64C G68A C76U C79U G83C U90A C95G A115U A138G, the “polymerase ribozyme fitness (log ratio)” value was ≤ -4.2.

On to A66G C93A C95A C96U C116U, for which the “polymerase ribozyme fitness (log ratio)” value is ≤ -4.2.

Take A21U A26U C57U G84U: the “polymerase ribozyme fitness (log ratio)” value is -3.6.

Take U33G G83C: the “polymerase ribozyme fitness (log ratio)” value is -3.6.

For A26C G50U C54U C96G, the “polymerase ribozyme fitness (log ratio)” value was -3.92.

On to C51U G94C, for which the “polymerase ribozyme fitness (log ratio)” value is -0.484.

With C5A A26G A115G, the “polymerase ribozyme fitness (log ratio)” value is ≤ -4.2.

As for A21G C54U G140A U145G, the “polymerase ribozyme fitness (log ratio)” value was ≤ -4.2.

Take A19G C72G A89G: the “polymerase ribozyme fitness (log ratio)” value is ≤ -4.2.

On to A41G A47U C51U A52C G88A G136U, for which the “polymerase ribozyme fitness (log ratio)” value was ≤ -4.2.

For the variant A17C U33C G42C C51A U53A U139G A142G, the “polymerase ribozyme fitness (log ratio)” value is ≤ -4.2.

For the variant A52C G67C G83U C108U G124U, the “polymerase ribozyme fitness (log ratio)” value is ≤ -4.2.

In the case of A47G G58C G112C, the “polymerase ribozyme fitness (log ratio)” value was -3.97.

As to A40C A49U U56A C57A G88C U135A A137U, the “polymerase ribozyme fitness (log ratio)” value is ≤ -4.2.

Take G58C A73G G84U: the “polymerase ribozyme fitness (log ratio)” value was -1.97.

With U55A C85U A122G A142G U145G, the “polymerase ribozyme fitness (log ratio)” value is -2.39.

With A113G U148A, the “polymerase ribozyme fitness (log ratio)” value is -4.05.

Take C63U A122C: the “polymerase ribozyme fitness (log ratio)” value is -0.464.

Turning to A20U C57G C93U C123U, the “polymerase ribozyme fitness (log ratio)” value is -2.57.

Regarding A119C, the “polymerase ribozyme fitness (log ratio)” value was -0.385.

Turning to U9G A73U C87U U102A C105G C108A, the “polymerase ribozyme fitness (log ratio)” value was ≤ -4.2.

For the variant A21U C54A C96U, the “polymerase ribozyme fitness (log ratio)” value is -2.01.

Take A26G A89C A97C G143C: the “polymerase ribozyme fitness (log ratio)” value is ≤ -4.2.

As for C96G A97G, the “polymerase ribozyme fitness (log ratio)” value is -2.61.

Regarding G50A A66G, the “polymerase ribozyme fitness (log ratio)” value was -3.75.

For C35A A52C U77C A147C, the “polymerase ribozyme fitness (log ratio)” value was ≤ -4.2.

For U56A C99U, the “polymerase ribozyme fitness (log ratio)” value is -0.614.

Turning to A37C A97U, the “polymerase ribozyme fitness (log ratio)” value was -0.373.

With G84C C123G U146G, the “polymerase ribozyme fitness (log ratio)” value is -2.7.

Turning to A12G C87G G88U C96U C105A C108G C116U, the “polymerase ribozyme fitness (log ratio)” value was ≤ -4.2.

Turning to A20U U45A C87G, the “polymerase ribozyme fitness (log ratio)” value is -4.13.

Regarding C8U C35A C72U C76U G88A G92U A121U, the “polymerase ribozyme fitness (log ratio)” value is ≤ -4.2.

(Values after the RNAGym collection of RNA variant scans (doi:10.1073/pnas.2313332121).)
